Laboratory results reported in the supplement of paper PMC9112550, “Optimization of the antimicrobial peptide Bac7 by deep mutational scanning” (BMC Biology, 2022).

System: Escherichia coli TOP10
Assay: shrunken log2 fold change of peptide-encoding DNA abundance (4.5 h post-induction vs induction); higher = less antimicrobial activity (less host growth inhibition)
Conditions: time post-induction: 4.5 h; library: site-saturation at positions 5, 18, 19, 20
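Further: peptides expressed intracellularly from a pBAD plasmid library in pooled LB shake-flask culture, induced with 0.3% L-arabinose, DNA abundance read by NGS, three biological replicates, DESeq2 with apeglm shrinkage.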

| Sequence | shrunken log2 fold change |
| --- | --- |
| RRIRSRPPRLPRPRPRPTSSPRP | -0.296 |
| RRIRQRPPRLPRPRPRPSDIPRP | -0.0397 |
| RRIRVRPPRLPRPRPRPVSSPRP | 0.105 |
| RRIRWRPPRLPRPRPRPFINPRP | -0.635 |
| RRIRERPPRLPRPRPRPWEDPRP | -0.0727 |
| RRIRWRPPRLPRPRPRPRGQPRP | 0.302 |
| RRIRVRPPRLPRPRPRPPIFPRP | -0.067 |
| RRIRQRPPRLPRPRPRPQARPRP | -0.0121 |
| RRIRYRPPRLPRPRPRPCLAPRP | -0.838 |
| RRIRDRPPRLPRPRPRPYHYPRP | -0.688 |
| RRIRPRPPRLPRPRPRPPCHPRP | 0.0684 |
| RRIRRRPPRLPRPRPRPFFNPRP | -0.0577 |
| RRIRFRPPRLPRPRPRPIDIPRP | 0.0578 |
| RRIRSRPPRLPRPRPRPMTHPRP | -0.469 |
| RRIRMRPPRLPRPRPRPFLYPRP | -0.124 |
| RRIRKRPPRLPRPRPRPVFGPRP | 0.176 |
| RRIRCRPPRLPRPRPRPCQKPRP | -0.103 |
| RRIRCRPPRLPRPRPRPTSNPRP | -0.1 |
| RRIRRRPPRLPRPRPRPICGPRP | -0.0231 |
| RRIRDRPPRLPRPRPRPHVLPRP | 0.00542 |
| RRIRHRPPRLPRPRPRPMGKPRP | -0.189 |
| RRIRIRPPRLPRPRPRPGYCPRP | -0.371 |
| RRIRIRPPRLPRPRPRPISDPRP | -0.0354 |
| RRIRARPPRLPRPRPRPAPWPRP | 0.632 |
| RRIRSRPPRLPRPRPRPSDSPRP | -0.612 |

| Sequence | shrunken log2 fold change |
| --- | --- |
| RRIRFRPPRLPRPRPRPFSGPRP | -0.0879 |
| RRIRFRPPRLPRPRPRPSFVPRP | -0.828 |
| RRIRGRPPRLPRPRPRPNPVPRP | 0.145 |
| RRIRLRPPRLPRPRPRPIPHPRP | -0.332 |
| RRIRQRPPRLPRPRPRPWNPPRP | -0.0759 |
| RRIRCRPPRLPRPRPRPPREPRP | 1.1 |
| RRIRPRPPRLPRPRPRPHTPPRP | -0.0561 |
| RRIRERPPRLPRPRPRPLDTPRP | 0.213 |
| RRIRWRPPRLPRPRPRPGSHPRP | 0.0507 |
| RRIRKRPPRLPRPRPRPCLHPRP | -0.0515 |
| RRIRCRPPRLPRPRPRPNEEPRP | -0.00783 |
| RRIRPRPPRLPRPRPRPENAPRP | 0.0319 |
| RRIRNRPPRLPRPRPRPRIFPRP | -0.442 |
| RRIRVRPPRLPRPRPRPPMMPRP | -0.0474 |
| RRIRKRPPRLPRPRPRPQYSPRP | -0.906 |
| RRIRNRPPRLPRPRPRPSRKPRP | -0.21 |
| RRIRSRPPRLPRPRPRPESTPRP | 0.0707 |
| RRIRMRPPRLPRPRPRPKNAPRP | 0.901 |
| RRIRDRPPRLPRPRPRPNCEPRP | 0.133 |
| RRIRKRPPRLPRPRPRPWHTPRP | 0.0104 |
| RRIRPRPPRLPRPRPRPNTWPRP | 0.272 |
| RRIRKRPPRLPRPRPRPTKMPRP | 0.229 |
| RRIRERPPRLPRPRPRPMTRPRP | -0.00264 |
| RRIRYRPPRLPRPRPRPSKIPRP | -0.502 |
| RRIRMRPPRLPRPRPRPTRYPRP | 0.628 |

| Sequence | shrunken log2 fold change |
| --- | --- |
| RRIRNRPPRLPRPRPRPEDCPRP | -0.00844 |
| RRIRTRPPRLPRPRPRPRKEPRP | 0.102 |
| RRIRFRPPRLPRPRPRPSLWPRP | 0.29 |
| RRIRGRPPRLPRPRPRPWYFPRP | -0.417 |
| RRIRTRPPRLPRPRPRPVHLPRP | -0.123 |
| RRIRERPPRLPRPRPRPTYPPRP | -1.11 |
| RRIRKRPPRLPRPRPRPKHEPRP | 0.134 |
| RRIRDRPPRLPRPRPRPNKQPRP | -0.0169 |
| RRIRHRPPRLPRPRPRPENYPRP | -0.327 |
| RRIRSRPPRLPRPRPRPFWRPRP | 0.0559 |
| RRIRTRPPRLPRPRPRPWARPRP | -0.00874 |
| RRIRRRPPRLPRPRPRPCAPPRP | 0.275 |
| RRIRERPPRLPRPRPRPAPLPRP | 0.324 |
| RRIRDRPPRLPRPRPRPYCTPRP | -0.253 |
| RRIRNRPPRLPRPRPRPPLNPRP | 0.0798 |
| RRIRKRPPRLPRPRPRPHWQPRP | 0.3 |
| RRIRWRPPRLPRPRPRPSHSPRP | -0.0913 |
| RRIRSRPPRLPRPRPRPVQVPRP | 0.159 |
| RRIRNRPPRLPRPRPRPKFGPRP | 0.0252 |
| RRIRTRPPRLPRPRPRPPMKPRP | -0.112 |
| RRIRSRPPRLPRPRPRPLNEPRP | -0.177 |
| RRIRVRPPRLPRPRPRPDWIPRP | -0.218 |
| RRIRVRPPRLPRPRPRPMWTPRP | -0.0192 |
| RRIRTRPPRLPRPRPRPKPDPRP | 0.214 |
| RRIRTRPPRLPRPRPRPMSWPRP | 0.0201 |

| Sequence | shrunken log2 fold change |
| --- | --- |
| RRIRNRPPRLPRPRPRPTYPPRP | -0.275 |
| RRIRGRPPRLPRPRPRPRGCPRP | 1.37 |
| RRIRWRPPRLPRPRPRPEFMPRP | 0.635 |
| RRIRDRPPRLPRPRPRPKGIPRP | 0.0238 |
| RRIRGRPPRLPRPRPRPQAIPRP | 0.58 |
| RRIRVRPPRLPRPRPRPRSGPRP | 0.322 |
| RRIRDRPPRLPRPRPRPKNWPRP | 2.51 |
| RRIRPRPPRLPRPRPRPKVFPRP | -0.0552 |
| RRIRWRPPRLPRPRPRPPLDPRP | 0.57 |
| RRIRERPPRLPRPRPRPGYHPRP | -0.502 |
| RRIRYRPPRLPRPRPRPQNYPRP | -0.81 |
| RRIRVRPPRLPRPRPRPKAWPRP | 0.0531 |
| RRIRHRPPRLPRPRPRPQYYPRP | -1.76 |
| RRIRNRPPRLPRPRPRPEREPRP | 0.256 |
| RRIRWRPPRLPRPRPRPDETPRP | 0.0169 |
| RRIRIRPPRLPRPRPRPKRHPRP | -0.0187 |
| RRIRKRPPRLPRPRPRPDVFPRP | -0.162 |
| RRIRARPPRLPRPRPRPICHPRP | 0.0398 |
| RRIRLRPPRLPRPRPRPFYCPRP | -0.472 |
| RRIRVRPPRLPRPRPRPAGHPRP | -0.1 |
| RRIRSRPPRLPRPRPRPEIDPRP | 0.166 |
| RRIRMRPPRLPRPRPRPMGLPRP | 0.0299 |
| RRIRTRPPRLPRPRPRPEWMPRP | -0.048 |
| RRIRRRPPRLPRPRPRPHQHPRP | 0.0389 |
| RRIRQRPPRLPRPRPRPFVNPRP | -0.545 |

| Sequence | shrunken log2 fold change |
| --- | --- |
| RRIRYRPPRLPRPRPRPTKFPRP | -0.316 |
| RRIRQRPPRLPRPRPRPTISPRP | -0.379 |
| RRIRRRPPRLPRPRPRPETDPRP | -0.00744 |
| RRIRMRPPRLPRPRPRPFEKPRP | 0.00408 |
| RRIRRRPPRLPRPRPRPHPDPRP | 0.474 |
| RRIRHRPPRLPRPRPRPHKVPRP | -0.299 |
| RRIRERPPRLPRPRPRPITHPRP | -0.527 |
| RRIRIRPPRLPRPRPRPARTPRP | 0.0599 |
| RRIRYRPPRLPRPRPRPFHVPRP | -0.184 |
| RRIRLRPPRLPRPRPRPTWWPRP | 0.454 |
| RRIRERPPRLPRPRPRPFAPPRP | 0.117 |
| RRIRNRPPRLPRPRPRPDMQPRP | -0.0295 |
| RRIRCRPPRLPRPRPRPVTAPRP | 0.108 |
| RRIRDRPPRLPRPRPRPIQDPRP | -0.0113 |
| RRIRKRPPRLPRPRPRPREYPRP | 0.261 |
| RRIRERPPRLPRPRPRPHEDPRP | 0.111 |
| RRIRPRPPRLPRPRPRPCFQPRP | -0.0314 |
| RRIRPRPPRLPRPRPRPMWAPRP | -0.201 |
| RRIRIRPPRLPRPRPRPQAEPRP | 0.172 |
| RRIRIRPPRLPRPRPRPDSAPRP | -0.194 |
| RRIRKRPPRLPRPRPRPWRRPRP | 0.0332 |
| RRIRLRPPRLPRPRPRPLGHPRP | -0.0858 |
| RRIRLRPPRLPRPRPRPPLSPRP | -0.00759 |
| RRIRSRPPRLPRPRPRPQVLPRP | -0.0779 |
| RRIRARPPRLPRPRPRPTNRPRP | 0.05 |
